Source: the Human Domainome abundance scans (Beltran et al. 2025)

B1: Retinoic acid receptor beta, residues 85 to 161; numbered along this chain, P10826 (parent)
chain: YKPCFVCQDKSSGYHYGVSACEGCKGFFRRSIQKNMIYTCHRDKNCVINKVTRNRCQYCRLQKCFEVGMSKESVRND

Variants of: B1
Assay: abundance fitness (aPCA) (normalised: wild type 0, dead -1); higher = more abundant; growth selection in yeast, the domain comes from the species named
Details: Homo sapiens

Abundance fitness of substitutions, site by site:
H41: N -0.121, I -0.064, G -0.024, Y -0.178, R -0.101, D 0.051, Q 0.029, S -0.089, K -0.103, T 0.129, E 0.131, A -0.006, M 0.081, W 0.016, L -0.077, P -0.044, C -0.157
F27: G -0.715, A -0.748, P -0.888, Q -0.97, D -0.698, I -0.724, L -0.886, Y -0.57, S -0.773, M -0.454, E -0.822, C -0.703
G26: H -0.109, K -0.49, S -0.254, W -0.862, C -0.107, I -0.078, N 0.246, A -0.021, L -0.265, T -0.024, R -0.481, V -0.121, Q -0.11, E 0.107, Y -0.467, F -0.193, D 0.162, M -0.396
R29: V 0.084, W 0.011, P -0.77, A 0.072, S 0.098, H 0.162, K -0.092, T 0.211, Q 0.091, D -0.079, I 0.069, Y -0.339, L 0.026, E 0.167, N 0.145
I37: W -0.119, Q 0.1, H -0.161, T -0.098, Y -0.345, K 0.13, G -0.152, V 0.032, C -0.204, S -0.085, N 0.043, L -0.053, R -0.009, P -0.118, E 0.046, D 0.048
Y38: G -0.523, M -0.466, Q -0.739, F -0.187, W -0.282, N -0.28, C -0.899, E -0.472, S -0.417, H -0.414, A -0.59, R -0.499, D -0.997, P -0.26, T -0.173
K25: H -0.223, G -0.017, C 0.02, E 0.036, S 0.099, R -0.069, F 0.133, I 0.094, Q 0.122, D 0.031, V 0.183, A 0.205, L 0.028, N 0.133, W 0.008, Y -0.047, T 0.048
K44: I -0.009, P -0.599, S 0.056, F -0.283, C -0.113, H -0.322, A -0.004, E -0.015, W -0.208, L -0.059, G 0.035, R 0, M 0.032, Y -0.321, V -0.356, Q 0.166, D -0.059, T -0.043
C40: E -0.831, Y -0.642, W -0.594, S -0.885, F -0.775, K -0.848, N -0.999, I -0.667, G -0.817, V -0.867, R -0.883, A -0.901, M -0.568, P -0.703, L -0.555, D -0.825, T -0.539
R42: C 0.145, S 0.014, V 0.177, P -1.01, N 0.115, I -0.114, Y 0.033, E 0.07, T -0.016, M 0.228, D -0.047, H -0.412, Q 0.121, W 0.15, K 0.067, A 0.203
S31: M -0.486, V -0.341, I -0.413, P -0.611, E -0.505, R -0.559
